Test results as given in paper PMC4650713, “Crystal structure of Bax bound to the BH3 peptide of Bim identifies important contacts for interaction” (Cell Death & Disease, 2015).

Tests used:
BaxΔC21 [1] = target: BaxΔC21 (UniProt Q07812)
BaxΔC21 [2] = target: BaxΔC21 (UniProt Q07812); assay: SPR; competition in solution: BaxΔC21 at 25 nM incubated with increasing concentrations of BH3 peptide in 10 mM HEPES, 150 mM NaCl, 3.4 mM EDTA, 0.005% Tween-20, pH 7.4 with 0.5% octylglucoside, injected onto a CM5 chip with immobilised BimBH3; Bim4E channel subtracted; IC50

Sequence of BaxΔC21 (Q07812 1-171 C62S/C126S): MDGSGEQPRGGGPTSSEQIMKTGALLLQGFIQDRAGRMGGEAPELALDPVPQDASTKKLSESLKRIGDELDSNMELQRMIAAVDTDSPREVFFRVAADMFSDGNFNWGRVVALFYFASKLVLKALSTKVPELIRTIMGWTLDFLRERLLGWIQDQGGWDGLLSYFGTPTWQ

## BimBH3 E145K (peptide)
BaxΔC21 [1]
  core/latch dimer formation of BaxΔC21 triggered by the peptide with CHAPS (gel filtration): > 50%
BaxΔC21 [2]
  IC50: 2400 nM
  fold weaker binding than BimBH3: 40 fold

## BimBH3 P144A/E145A (peptide)
BaxΔC21 [2]
  fold loss of affinity against BimBH3: 3 fold

## BimBH3 peptide
BaxΔC21 [2]
  fold tighter binding than BidBH3: 5 fold
